Tested on: Escherichia coli TOP10
Assay: shrunken log2 fold change of peptide-encoding DNA abundance (4.5 h post-induction vs induction); higher = less antimicrobial activity (less host growth inhibition)
Details: time post-induction: 4.5 h; library: site-saturation at positions 5, 18, 19, 20
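Also: peptides expressed intracellularly from a pBAD plasmid library in pooled LB shake-flask culture, induced with 0.3% L-arabinose, DNA abundance read by NGS, three biological replicates, DESeq2 with apeglm shrinkage.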

Going from RRIRYRPPRLPRPRPRPSELPRP to RRIRGRPPRLPRPRPRPELLPRP, the “shrunken log2 fold change” value rises from -0.0343 to 0.334.

Going from RRIRIRPPRLPRPRPRPWIHPRP to RRIRFRPPRLPRPRPRPFCCPRP, the “shrunken log2 fold change” value falls from 2.37 to -0.225.

Compared with RRIRMRPPRLPRPRPRPYIQPRP, RRIRRRPPRLPRPRPRPQHRPRP is higher in “shrunken log2 fold change” value: -1.05 for the first, 0.266 for the second.

RRIRERPPRLPRPRPRPFWIPRP and RRIRTRPPRLPRPRPRPVSGPRP are within 0.2 log units of each other in “shrunken log2 fold change” value: -0.165 for the first, -0.0612 for the second.

Compared with RRIRGRPPRLPRPRPRPRELPRP, RRIRARPPRLPRPRPRPFFAPRP is lower in “shrunken log2 fold change” value: 1.31 for the first, 0.67 for the second.

Going from RRIRMRPPRLPRPRPRPPSKPRP to RRIRDRPPRLPRPRPRPIGAPRP, the “shrunken log2 fold change” value falls from 0.557 to -0.173.

Compared with RRIRMRPPRLPRPRPRPMKNPRP, RRIRLRPPRLPRPRPRPRTWPRP is lower in “shrunken log2 fold change” value: 0.328 for the first, 0.111 for the second.

RRIRARPPRLPRPRPRPIRKPRP and RRIRRRPPRLPRPRPRPSKNPRP are within 0.2 log units of each other in “shrunken log2 fold change” value: 0.0897 for the first, -0.00571 for the second.

Compared with RRIRGRPPRLPRPRPRPYMQPRP, RRIRGRPPRLPRPRPRPVSMPRP is higher in “shrunken log2 fold change” value: -0.212 for the first, 0.401 for the second.

RRIRPRPPRLPRPRPRPCGHPRP and RRIRYRPPRLPRPRPRPPQAPRP are within 0.2 log units of each other in “shrunken log2 fold change” value: -0.0439 for the first, 0.114 for the second.

First: RRIRIRPPRLPRPRPRPRLSPRP
Second: RRIRERPPRLPRPRPRPSVKPRP
The “shrunken log2 fold change” value of the first is higher: -0.325 for the first, -0.625 for the second.

RRIRDRPPRLPRPRPRPKQSPRP and RRIRMRPPRLPRPRPRPKVHPRP are within 0.2 log units of each other in “shrunken log2 fold change” value: 0.00791 for the first, -0.132 for the second.

First: RRIRERPPRLPRPRPRPQDLPRP
Second: RRIRSRPPRLPRPRPRPPLRPRP
The “shrunken log2 fold change” value of the first is lower: -0.351 for the first, 0.249 for the second.

RRIRYRPPRLPRPRPRPLEAPRP and RRIRERPPRLPRPRPRPDSFPRP are within 0.2 log units of each other in “shrunken log2 fold change” value: 0.0153 for the first, 0.0952 for the second.

First: RRIRLRPPRLPRPRPRPYFNPRP
Second: RRIRARPPRLPRPRPRPIIRPRP
The “shrunken log2 fold change” value of the first is lower: -1.13 for the first, -0.357 for the second.

RRIRLRPPRLPRPRPRPQYIPRP and RRIRQRPPRLPRPRPRPSWQPRP are within 0.2 log units of each other in “shrunken log2 fold change” value: -0.189 for the first, -0.0449 for the second.

RRIRQRPPRLPRPRPRPDEDPRP and RRIRWRPPRLPRPRPRPLPCPRP are within 0.2 log units of each other in “shrunken log2 fold change” value: -0.0326 for the first, 0.118 for the second.

RRIRFRPPRLPRPRPRPAMEPRP and RRIRIRPPRLPRPRPRPEIYPRP are within 0.2 log units of each other in “shrunken log2 fold change” value: 0.0126 for the first, -4.67e-05 for the second.

RRIRGRPPRLPRPRPRPKPIPRP and RRIRTRPPRLPRPRPRPGWTPRP are within 0.2 log units of each other in “shrunken log2 fold change” value: 0.177 for the first, 0.24 for the second.

Going from RRIRARPPRLPRPRPRPITSPRP to RRIRYRPPRLPRPRPRPSCMPRP, the “shrunken log2 fold change” value falls from 0.157 to -0.947.

Compared with RRIRPRPPRLPRPRPRPHQSPRP, RRIRMRPPRLPRPRPRPSLPPRP is lower in “shrunken log2 fold change” value: 0.238 for the first, -0.0418 for the second.

RRIRHRPPRLPRPRPRPCGEPRP and RRIRARPPRLPRPRPRPMMDPRP are within 0.2 log units of each other in “shrunken log2 fold change” value: -0.0851 for the first, -0.203 for the second.

Compared with RRIRVRPPRLPRPRPRPAYYPRP, RRIRVRPPRLPRPRPRPHDDPRP is higher in “shrunken log2 fold change” value: -0.616 for the first, -0.162 for the second.

Compared with RRIRCRPPRLPRPRPRPCRVPRP, RRIRWRPPRLPRPRPRPEIWPRP is higher in “shrunken log2 fold change” value: -0.438 for the first, 1 for the second.

Going from RRIRMRPPRLPRPRPRPPKEPRP to RRIRDRPPRLPRPRPRPDAPPRP, the “shrunken log2 fold change” value rises from -0.0231 to 0.788.

Going from RRIRVRPPRLPRPRPRPPNAPRP to RRIRIRPPRLPRPRPRPQSAPRP, the “shrunken log2 fold change” value falls from 0.295 to 0.0313.

First: RRIRKRPPRLPRPRPRPFPPPRP
Second: RRIRERPPRLPRPRPRPNSWPRP
The “shrunken log2 fold change” value of the first is higher: 0.33 for the first, -0.0404 for the second.

Going from RRIRGRPPRLPRPRPRPIAWPRP to RRIRGRPPRLPRPRPRPWWRPRP, the “shrunken log2 fold change” value falls from 1.05 to 0.626.

RRIRTRPPRLPRPRPRPHCRPRP and RRIRMRPPRLPRPRPRPNNGPRP are within 0.2 log units of each other in “shrunken log2 fold change” value: -0.0822 for the first, 0.0562 for the second.

Going from RRIRARPPRLPRPRPRPVCSPRP to RRIRTRPPRLPRPRPRPGLAPRP, the “shrunken log2 fold change” value falls from 0.665 to 0.308.

First: RRIRERPPRLPRPRPRPKYMPRP
Second: RRIRIRPPRLPRPRPRPWYLPRP
The “shrunken log2 fold change” value of the first is higher: 0.822 for the first, -0.166 for the second.

RRIRMRPPRLPRPRPRPRIMPRP and RRIRYRPPRLPRPRPRPEFHPRP are within 0.2 log units of each other in “shrunken log2 fold change” value: 0.049 for the first, 0.00393 for the second.

First: RRIRGRPPRLPRPRPRPPKGPRP
Second: RRIRPRPPRLPRPRPRPVDSPRP
The “shrunken log2 fold change” value of the first is higher: 0.673 for the first, -0.177 for the second.

Going from RRIRTRPPRLPRPRPRPQVNPRP to RRIRTRPPRLPRPRPRPIDHPRP, the “shrunken log2 fold change” value rises from -0.587 to -0.263.

First: RRIRLRPPRLPRPRPRPYVIPRP
Second: RRIRQRPPRLPRPRPRPEEFPRP
The “shrunken log2 fold change” value of the first is lower: -0.662 for the first, -0.0679 for the second.

Compared with RRIRSRPPRLPRPRPRPHVIPRP, RRIRKRPPRLPRPRPRPCDCPRP is higher in “shrunken log2 fold change” value: -0.6 for the first, -0.0743 for the second.

Compared with RRIRVRPPRLPRPRPRPQREPRP, RRIRLRPPRLPRPRPRPTWHPRP is higher in “shrunken log2 fold change” value: -0.0361 for the first, 0.174 for the second.

RRIRNRPPRLPRPRPRPCGYPRP and RRIRHRPPRLPRPRPRPRNLPRP are within 0.2 log units of each other in “shrunken log2 fold change” value: 0.019 for the first, 0.0727 for the second.

RRIRTRPPRLPRPRPRPAFMPRP and RRIRCRPPRLPRPRPRPQPWPRP are within 0.2 log units of each other in “shrunken log2 fold change” value: -0.0227 for the first, 0.125 for the second.

Compared with RRIRWRPPRLPRPRPRPERQPRP, RRIRGRPPRLPRPRPRPIQKPRP is lower in “shrunken log2 fold change” value: 0.353 for the first, 0.0229 for the second.

RRIRCRPPRLPRPRPRPRIKPRP and RRIRDRPPRLPRPRPRPATCPRP are within 0.2 log units of each other in “shrunken log2 fold change” value: 0.0662 for the first, 0.171 for the second.

Compared with RRIRSRPPRLPRPRPRPDKLPRP, RRIRKRPPRLPRPRPRPLIAPRP is higher in “shrunken log2 fold change” value: -0.266 for the first, 0.456 for the second.

Going from RRIRERPPRLPRPRPRPAQEPRP to RRIRNRPPRLPRPRPRPHDCPRP, the “shrunken log2 fold change” value falls from 0.597 to -0.124.

Compared with RRIRNRPPRLPRPRPRPAFIPRP, RRIRVRPPRLPRPRPRPMGPPRP is higher in “shrunken log2 fold change” value: -0.579 for the first, 0.24 for the second.

First: RRIRNRPPRLPRPRPRPYNQPRP
Second: RRIRSRPPRLPRPRPRPMLAPRP
The “shrunken log2 fold change” value of the first is lower: -0.597 for the first, 0.244 for the second.

RRIRHRPPRLPRPRPRPIFRPRP was tested, and the “shrunken log2 fold change” value was -0.173.

Source: the supplement of paper PMC9112550, “Optimization of the antimicrobial peptide Bac7 by deep mutational scanning” (BMC Biology, 2022)
